Reference: PMC7898697
pKd: −log10 of the molar value.

Experiments:
Assay in all cases: BLI
[1] = target: triazole-linked ^triazole42Ub^Pr (6), biotinylated (UniProt P0CG48)
[2] = target: triazole-linked ^triazole42Ub^ADPr (4), biotinylated (UniProt P0CG48)
[3] = target: unmodified ubiquitin, biotinylated (biotin-Ub) (UniProt P0CG48)
[4] = target: triazole-linked ^triazole72Ub^ADPr, biotinylated (UniProt P0CG48)
[5] = target: triazole-linked ^triazole42Ub^me-ADPr (5), biotinylated (UniProt P0CG48)
[6] = target: natively linked ^Arg42Ub^ADPr, biotinylated (UniProt P0CG48)

| Substance | fold reduction of affinity against 4 and 5 [1] [fold] | pKd [2] | fold reduction of affinity against 4 and 5 [3] [fold] | pKd [4] | pKd [5] | pKd [3] | pKd [6] |
| --- | --- | --- | --- | --- | --- | --- | --- |
| DupA-H67A lacking the GST tag (from UniProt Q5ZTK7 1-301) (enzyme) | > 15 | 5.66 | > 15 | 5.03 | 5.92 |  |  |
| glutathione S-transferase (GST)-tagged DupA-H67A (from UniProt Q5ZTK7 1-301) (enzyme) |  | 7.95 |  |  | 7.97 | 7.26 | 8.24 |
